Patent US20220040297A1 (Chugai, published 2022)

Biological target: CD3ε homodimer protein (human, UniProt P07766 23-126, limits assumed)
Assay: SPR, immobilized CD3ε homodimer;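 also: biacore T200 surface plasmon resonance at 25 °C, antibody variants flowed as analytes over amine-coupled CD3ε homodimer on a CM4 chip, variant binding amount divided by that of GLS3000 antibody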

Sequence of CD3ε homodimer protein (P07766 23-126 limits assumed): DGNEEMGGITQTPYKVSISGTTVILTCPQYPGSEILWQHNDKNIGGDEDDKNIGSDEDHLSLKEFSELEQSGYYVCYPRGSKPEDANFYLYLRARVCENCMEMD

| ratio of amounts bound (vs GLS3000) | Binder |
| --- | --- |
| 0.26 | GLS3000 T92P (antibody, name in Kabat numbering, V domains shown, one-arm format as m2) VH: QVQLVESGGGVVQPGRSLRLSCAASGFTFSNAWMHWVRQAPGKGLEWVAQIKAKSNNYATYYAESVKGRFTISRDDSKNSLYLQMNSLKTEDTAVYYCRYVHYGAYYGVDAWGQGTTVTVSS VL: DIVMTQSPLSLPVTPGEPASISCRSSQSLVHSNRNTYLHWYQQKPGQAPRLLIYKVSNRFSGVPDRFSGSGSGTDFTLKISRVEAEDVGVYYCGQGPQVPYTFGQGTKLEIK |
| 0.31 | GLS3000 T31P (antibody, name in Kabat numbering, V domains shown, one-arm format as m2) VH: QVQLVESGGGVVQPGRSLRLSCAASGFTFSNAWMHWVRQAPGKGLEWVAQIKAKSNNYATYYAESVKGRFTISRDDSKNSLYLQMNSLKTEDTAVYYCRYVHYGAYYGVDAWGQGTTVTVSS VL: DIVMTQSPLSLPVTPGEPASISCRSSQSLVHSNRNPYLHWYQQKPGQAPRLLIYKVSNRFSGVPDRFSGSGSGTDFTLKISRVEAEDVGVYYCGQGTQVPYTFGQGTKLEIK |
| 0.63 | GLS3000 T92A (antibody, name in Kabat numbering, V domains shown, one-arm format as m2) VH: QVQLVESGGGVVQPGRSLRLSCAASGFTFSNAWMHWVRQAPGKGLEWVAQIKAKSNNYATYYAESVKGRFTISRDDSKNSLYLQMNSLKTEDTAVYYCRYVHYGAYYGVDAWGQGTTVTVSS VL: DIVMTQSPLSLPVTPGEPASISCRSSQSLVHSNRNTYLHWYQQKPGQAPRLLIYKVSNRFSGVPDRFSGSGSGTDFTLKISRVEAEDVGVYYCGQGAQVPYTFGQGTKLEIK |
| 0.18 | GLS3000 T92D (antibody, name in Kabat numbering, V domains shown, one-arm format as m2) VH: QVQLVESGGGVVQPGRSLRLSCAASGFTFSNAWMHWVRQAPGKGLEWVAQIKAKSNNYATYYAESVKGRFTISRDDSKNSLYLQMNSLKTEDTAVYYCRYVHYGAYYGVDAWGQGTTVTVSS VL: DIVMTQSPLSLPVTPGEPASISCRSSQSLVHSNRNTYLHWYQQKPGQAPRLLIYKVSNRFSGVPDRFSGSGSGTDFTLKISRVEAEDVGVYYCGQGDQVPYTFGQGTKLEIK |

The next lines start with the binder.

| Binder | ratio of amounts bound (vs GLS3000) |
| --- | --- |
| GLS3000 T31N (antibody, name in Kabat numbering, V domains shown, one-arm format as m2) VH: QVQLVESGGGVVQPGRSLRLSCAASGFTFSNAWMHWVRQAPGKGLEWVAQIKAKSNNYATYYAESVKGRFTISRDDSKNSLYLQMNSLKTEDTAVYYCRYVHYGAYYGVDAWGQGTTVTVSS VL: DIVMTQSPLSLPVTPGEPASISCRSSQSLVHSNRNNYLHWYQQKPGQAPRLLIYKVSNRFSGVPDRFSGSGSGTDFTLKISRVEAEDVGVYYCGQGTQVPYTFGQGTKLEIK | 0.32 |
| GLS3000 T92I (antibody, name in Kabat numbering, V domains shown, one-arm format as m2) VH: QVQLVESGGGVVQPGRSLRLSCAASGFTFSNAWMHWVRQAPGKGLEWVAQIKAKSNNYATYYAESVKGRFTISRDDSKNSLYLQMNSLKTEDTAVYYCRYVHYGAYYGVDAWGQGTTVTVSS VL: DIVMTQSPLSLPVTPGEPASISCRSSQSLVHSNRNTYLHWYQQKPGQAPRLLIYKVSNRFSGVPDRFSGSGSGTDFTLKISRVEAEDVGVYYCGQGIQVPYTFGQGTKLEIK | 0.34 |
| GLS3000 T92L (antibody, name in Kabat numbering, V domains shown, one-arm format as m2) VH: QVQLVESGGGVVQPGRSLRLSCAASGFTFSNAWMHWVRQAPGKGLEWVAQIKAKSNNYATYYAESVKGRFTISRDDSKNSLYLQMNSLKTEDTAVYYCRYVHYGAYYGVDAWGQGTTVTVSS VL: DIVMTQSPLSLPVTPGEPASISCRSSQSLVHSNRNTYLHWYQQKPGQAPRLLIYKVSNRFSGVPDRFSGSGSGTDFTLKISRVEAEDVGVYYCGQGLQVPYTFGQGTKLEIK | 0.42 |
| GLS3000 T92E (antibody, name in Kabat numbering, V domains shown, one-arm format as m2) VH: QVQLVESGGGVVQPGRSLRLSCAASGFTFSNAWMHWVRQAPGKGLEWVAQIKAKSNNYATYYAESVKGRFTISRDDSKNSLYLQMNSLKTEDTAVYYCRYVHYGAYYGVDAWGQGTTVTVSS VL: DIVMTQSPLSLPVTPGEPASISCRSSQSLVHSNRNTYLHWYQQKPGQAPRLLIYKVSNRFSGVPDRFSGSGSGTDFTLKISRVEAEDVGVYYCGQGEQVPYTFGQGTKLEIK | 0.17 |
